Measurements published in article PMC8699718, “A structurally conserved site in AUP1 binds the E2 enzyme UBE2G2 and is essential for ER-associated degradation” (PLoS Biology, 2021).

Target: T1, gp78 RING (Homo sapiens, UniProt Q9UKV5)
T1 construct: The gp78-RING construct (aa 313 to 393) was generated by inserting a stop codon; GST (pGEX-4T-2 vector) (N); made in house
Assay: NMR titration (1H-15N HSQC CSP) of 15N-UBE2G2 with or without G2BR with gp78 RING
Format: binding
Conditions: overall value; 15N-UBE2G2 150 μM, gp78 RING 0-450 μM, 50 mM Tris-Cl pH 7.0, 0.5 mM TCEP, 100 μM zinc sulfate, 0.05% sodium azide; G2BR 1:1.1 where present; read-out: affinity for gp78 RING (Kd) by NMR CSP
Protocol: Fig 5 Titration of UBE2G2:G2BR with gp78 RING. Superposition of ^15N-^1H^N HSQC NMR spectra for apo-UBE2G2 and UBE2G2 bound to G2BR^AUP1 (A) or G2BR^gp78 (B). Spectra for UBE2G2 (150 μM) bound to G2BR were acquired at a 1:1.1 ratio. (C) Superposition of the spectra for apo-UBE2G2, UBE2G2:G2BR^AUP1, and UBE2G2:G2BR^gp78, illustrating the equivalence of perturbations between G2BR^AUP1 and G2BR^gp78. (D) Expansion of overlaid resonances corresponding to UBE2G2 residues showing fast exchange binding kinetics for gp78 RING binding to both UBE2G2:G2BR^AUP1 (left panels) and UBE2G2:G2BR^gp78 (right panels). Spectra were acquired at ratios of RING to UBE2G2:G2BR of 0, 0.33, 0.67, 1.0, 2.0, and 3.0. […]
UBE2G2 and gp78 RING used in titration experiments were expressed and purified as previously described. […] The changes in chemical shift for each peak in the 2D spectrum upon gp78 RING binding was calculated using the following CSP equation: ΔCSP=(ΔδN/5)^2+(ΔδH)^2/2 (1)
The CSPs calculated from Eq 1 were plotted versus the molar ratio of gp78 RING to UBE2G2:G2BR, and the data were fit using the following equation to calculate the dissociation constant (Kd), where x is the ligand-to-protein ratio: ΔCSP=ΔCSPmax/2*1+x+Kd/P−(1+x+Kd)^2/P−4x (2)

T1 sequence (Q9UKV5 313-393, one chain of several): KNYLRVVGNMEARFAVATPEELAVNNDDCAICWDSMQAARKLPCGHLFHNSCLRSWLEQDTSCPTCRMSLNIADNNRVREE

Kd: 207 ± 6.4 µM
B1: UBE2G2: ERAD ubiquitin-conjugating enzyme (E2); purified in vitro, N-terminally MYC-tagged in cells (protein)
chain: MAGTALKRLMAEYKQLTLNPPEGIVAGPMNEENFFEWEALIMGPEDTCFEFGVFPAILSFPLDYPLSPPKMRFTCEMFHPNIYPDGRVCISILHAPGDDPMGYESSAERWSPVQSVEKILLSVVSMLAEPNDESGANVDASKMWRDDREQFYKIAKQIVQKSLGL
